# Experimental data published in the nanobody polyreactivity screen of Harvey et al. (2022).
# Assay: yeast display, Sf9 membrane polyspecificity reagent, FACS + sequencing; frameworks hold sequencing errors
# In short: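 Synthetic nanobody libraries on Saccharomyces cerevisiae BJ5465 were galactose-induced for 36–48 hours, stained 1 hour at 4 °C with 10% biotinylated, detergent-solubilized Sf9 membrane reagent and enriched on streptavidin microbeads. FACS then separated cells into low and high (top ~1%) gates by anti-HA (expression) and streptavidin (reagent binding) fluorescence. Genes were colony-PCR amplified, MiSeq 2 × 250 sequenced and CDR-length filtered. A clone's polyreactivity label is that of its gate of origin.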
row,Sequence,polyreactivity (PSR sort gate)
1,QVQLVESGGGLVQAGGSLRLSCAASGRIFLGNVMGWSRQAPGKERELVAAISSGGSTNYADSVKGRFTISRDNAKNTVYLQMNSLKPEDTAVYYCAAYFVRDWKLYYYWGQGTHVTVSS,low polyreactivity
2,QVQLVESGGGLVQAGGSLRLSCAASGRIFLHYAMGWYRQAPGKERELVAAISRSGGSTYYADSVKGRFTISRDNAKNTVYLQMNSLKPEDTAVYYCAAAYPFKTTEGYFYWGQGTQVTVSS,high polyreactivity
3,QVQLVESGGGLVQAGGSLRLSCAASGRIFLINALGCYRQAPGKERELVAAIRTGGNTYYADSVKGRFTISRDNAKNTVYLQMNSLKPEDTAVYSCAADRIYPYYRWSGAHRSDVDYWGQGTQVTVSS,low polyreactivity
4,QVQLVESGGGLVQAGGSLRLSCAASGRIFLINGMGWYRQAPGKERELVAVITQSGGTYYADSVKGRFTISRDNAKNTVYLQMNSLKPEDTAVYYCAASSYGASRGYWGQGTQVTVSS,high polyreactivity
5,QVQLVESGGGLVQAGGSLRLSCAASGRIFLKYSMGWYRQAPGKERELVAAISRGGSTYYADSVKGRFTISRDNAKNTVYLQMNSLKPEDTAVYYCAATSYRRTGYNYWGQGTQVTVSS,high polyreactivity
6,QVQLVESGGGLVQAGGSLRLSCAASGRIFLNYAMGWYRQAPGKERELDAAISRRGASTYYADSVKGRFTISRENAKNTVYLQMNSLKPEDTAVYYCATVPGKSGDYWGLGTQVTVSS,high polyreactivity
7,QVQLVESGGGLVQAGGSLRLSCAASGRIFLNYDMGWYTQAPGKERELVADISISGSTDYADSVKWRFTISRDNAKKTVYLQMNCLKPEDTAVYYCATSFYVSDYYVPYEMGYWGQGTQVTVSS,low polyreactivity
8,QVQLVESGGGLVQAGGSLRLSCAASGRIFLQYAMGWYRQAPGKERELVAGISSRGGSTYYADSVKGRFTISRDNAKNTVYLQMNSLKPEDTAVYYCAAQTKRIRYVYKHYYWGQGTQVTVSS,high polyreactivity
9,QVQLVESGGGLVQAGGSLRLSCAASGRIFLRNAMGWYRQAPGKERELVAAISSSGGRTYYADSVKGRFTISRDNAKNTVYLQMNSLKPEDTAVYYCNARWHGSFDYWGQGTQVTVSS,low polyreactivity
10,QVQLVESGGGLVQAGGSLRLSCAASGRIFLRTAMGWYRLAPAKERELVASIDSSGGSAYYADSVQGRFTISRDNAKNTVYLQMNSLKPEDTAVFYCNADAYGTPEFTSYAVRYDYGGQGTQVTVSS,low polyreactivity
11,QVQLVESGGGLVQAGGSLRLSCAASGRIFLRYAMGWYRQAPGKERELVAAIDFSAGSTYYADSVKGRFTISRDNAKNTVYLQMNSLKPEDTAVYYCATRLGVLYDYWGQGTQVTVSS,low polyreactivity
12,QVQLVESGGGLVQAGGSLRLSCAASGRIFLRYAMGWYRQAPGKERELVAVITWSGGSTNYADSVKGRFTISRDNAKNTVYLQMNSLKPEDTAVYYCAVDNSGRSWPYDYWGQGTQVTVSS,low polyreactivity
13,QVQLVESGGGLVQAGGSLRLSCAASGRIFLRYAMGWYRQAPGKERELVAVITWSGGSTNYADSVKGRFTISRDNAKNTVYLQMNSLKREDTAVYYCAVDNTGRSWPYDYWGQGTQVTVSS,low polyreactivity
14,QVQLVESGGGLVQAGGSLRLSCAASGRIFLRYVMGWYRQAPGKERELVAAIRSNGGSTYADSVKGRFTISRDNAKNTVYLQMNSLKPEDTAVYYCAARYFNTKGSFVVGYGYWGQGSQVTVSS,high polyreactivity
15,QVQLVESGGGLVQAGGSLRLSCAASGRIFLSNAMGWYRQAPGKERELVAAISWTGGSTYYADSVKGRFTISRDNAKNTVYLQMNSLKPEDTAVYYCAASTVGQTYSDYVDTYDYWGQGTQVTVSS,low polyreactivity
16,QVQLVESGGGLVQAGGSLRLSCAASGRIFLSNGMGWYRHAPGKERELVAGITTGGGDSTYYADSVKGRFTISRDNAKHTVYLQMNSLKPEDTAVYYCNADSVYAGFDYWGQGPQVTVSS,low polyreactivity
17,QVQLVESGGGLVQAGGSLRLSCAASGRIFLSYAMGWYRQAPGKERELVAAITDNGGDTYYADSVKGRFTISRDNAKNTVYLQMNILKPEDTAVYYCAVDGGEFSSYGYWGQGTQVTVSS,low polyreactivity
18,QVQLVESGGGLVQAGGSLRLSCAASGRIFLTYAMGWYRQAPGKERELVAAISTSGTRTYYADSVKGRFTISRDNAMNTVYLQMNSLKPEDTAVYYCAREKYNYRTYEYWGQGTQVTVSS,high polyreactivity
19,QVQLVESGGGLVQAGGSLRLSCAASGRIFLVYGMGWYREAPGKERELVASITYRGGSTYYADSVKGRFTISRDNAKNTVYLQMNSLKPEDTAVYYCADDGAFYASTEMDYWGQGTQVNVSS,low polyreactivity
20,QVQLVESGGGLVQAGGSLRLSCAASGRIFLVYVMGWYRQAPGKERELVAAISASDGSTYYADSVKGRFTISRDNAKNTVYLQMNSLKPEDTAVYYCAEWGYSLDSNSYRELNYWGQGTQVTVSS,low polyreactivity

row,Sequence,polyreactivity (PSR sort gate)
1,QVQLVESGGGLVQAGGSLRLSCAASGRIFLYAMGWYRQAPGKERELVAAINSGGSTNYADSVKGRFTISRDNAKNTVYLQMNSLKPEDTAVYYCAAEVLYWYRYYYWGQGTQVTVSS,low polyreactivity
2,QVQLVESGGGLVQAGGSLRLSCAASGRIFLYYAMGWYRQAPGKERDFVAAITYIGGSTYYADSVKGRFTISRDNAKNTVYLQMNSLKPEDTAVYDCATDGYRIDVYHPVYRYDYWGQGTQVTVSS,low polyreactivity
3,QVQLVESGGGLVQAGGSLRLSCAASGRIFNEYAMGWYRQAPGKERELVAAITYSDDSTYYADSVKGRFTISRDNAKNTVYLQMNSLKPEDTAVYYCNADTPVWDGHAYPVDYWGQGTQVTVSS,low polyreactivity
4,QVQLVESGGGLVQAGGSLRLSCAASGRIFNKNAMGWYRQAPGKERELVAAITYSGGSTYYADSVKGRFTISRDNAKNTVYLQMNSLKPEDTAVYYCARDLYYVYSFAPYRYEYWGQGTQLTVSS,low polyreactivity
5,QVQLVESGGGLVQAGGSLRLSCAASGRIFNLNAMGWYRQAPGKERELVAAISKSGTRTYYADSVKGRFTISRDNAKNTVYLQMNSLKQEDTAVYYCAAEALYYDRLGWVYLRYDYWGQGTQVTVSS,high polyreactivity
6,QVQLVESGGGLVQAGGSLRLSCAASGRIFNLYDMGWYRQAPGKERELVAAIRIGDRTYYADSVKGRFTISRDNAKNTVYLQMNSLKPEDTAVYYCNREYLSNRDKRFYYWGQGTQVTVSS,low polyreactivity
7,QVQLVESGGGLVQAGGSLRLSCAASGRIFNLYGMGWYRQAPGKEREFVATITWSGVTTYADSVKGRFTISRDNAKNTVYLQMNSLKPEDTAVYYCAADYRYRTRWYDYWGQGTQVTVSS,high polyreactivity
8,QVQLVESGGGLVQAGGSLRLSCAASGRIFNNYAMGWYRPAPGKERELVAAISTSGGSTYYADSVKGRFTISRDNAKNTVYLQMNSLKPEDTAVYYCNAVSRKRHYAPSYDYWGQGTQVTVSS,high polyreactivity
9,QVQLVESGGGLVQAGGSLRLSCAASGRIFNPNAMGWDRQAPGKERELVAAISTSGDSTYADSVKGRFTISRDNAKNTVYLQMNSLKPEDTAVYYCAATSGRRTTRWGRYGYWGQGTQVTVSS,high polyreactivity
10,QVQLVESGGGLVQAGGSLRLSCAASGRIFNQYAMGWYRQAPGKERELVAAISRRGGSTYYADSVKGRFTISRDNAKNTVYLQMNSLKPEDTAVYYCAAVGGYASYFHLYYYWGQGSQVTVSS,high polyreactivity
11,QVQLVESGGGLVQAGGSLRLSCAASGRIFNQYGMGWYRQAPGKERELVASITLTDGSTYYADSVKGRFTISRDNAKNTVYLQMNSLKPEDTAVYYCAARISGGSTFRYQRMYYWGQGTQVTVSS,low polyreactivity
12,QVQLVESGGGLVQAGGSLRLSCAASGRIFNRNAMGWYRQAPGKERELVASISSGGRTNYADSVKGRFTISRDNAKNTVYLLMNSLKPEDTAVYYCAAKSPRILLDYWGQGTQVTVSS,low polyreactivity
13,QVQLVESGGGLVQAGGSLRLSCAASGRIFNRNAMGWYRQAPGKERELVASISSGGRTNYADSVTGRFTISRDNAKNTDYLQMNSLKPEDTAVYYCAAKSPRILLDYWGQGTQVTVSS,low polyreactivity
14,QVQLVESGGGLVQAGGSLRLSCAASGRIFNRYAMGWYRQAPGKEREFVARITGSGGRTYYADSVKGRFTISRDNAKNTVYLQMNSLKPEDTAVYYCARDRGYQSGYDYWGQGTQVTVSS,high polyreactivity
15,QVQLVESGGGLVQAGGSLRLSCAASGRIFNRYAMGWYRQAPGKERELVAAISSRGGSTFYADSVKGRFTISRDIAKNTVYLQMNSLKPVDTAVYYCATAWHRGVRGRTSGAFDYWGQGTQVTVSS,high polyreactivity
16,QVQLVESGGGLVQAGGSLRLSCAASGRIFNRYTMGWYRQAPGKERELGAAISKSGGSTYYADSVKGRFTISRDNAKNTVYVQMNSLKPEDTAVYDCAAPPRLYRWHGGDYWGQGTQVTVSS,high polyreactivity
17,QVQLVESGGGLVQAGGSLRLSCAASGRIFNSNTMGWYRQAPGKERELVAAIRGSGGSTYADSVKGRFTISRDNAKNTVYLQMNSLKPEDTAVYYCAASPRRWYTPDAVSTYRMYYWGQGTQVTVSS,high polyreactivity
18,QVQLVESGGGLVQAGGSLRLSCAASGRIFNSNTMGWYRQAPGKERELVAAITYSGGSTYYADSVKGRFTISRDNAKNTVYLQMNSLKPEDTAVYYCAADFWEYDGPWYANDYDSWGQGTQVTVSS,low polyreactivity
19,QVQLVESGGGLVQAGGSLRLSCAASGRIFNSYAMGWSRQAPGKERELVAAISSGGSTYYADSVKGRFTISRDNAKNTVYLQMKRLKPEDTAVYYCAARIWNGRGRKLGYGYDYWGQGTQVTVSS,low polyreactivity
20,QVQLVESGGGLVQAGGSLRLSCAASGRIFNSYAMGWYIQAPGKERELVAAISSGGSTYYADSVKGRFTISRDNAKNTVYLQMNSLKPEDTAVYYCAARIWTGRGRKLGYGYDYWGQGTQVTVSS,low polyreactivity
